Source: patent US20050282743A1, “Molecular interactions in cells” (Arbor Vita Corporation, priority 2001, published 2005)

Biological target: T1, GST-INADL PDZ domain 5 (Homo sapiens (Human)), Q8NI35
T1 chain: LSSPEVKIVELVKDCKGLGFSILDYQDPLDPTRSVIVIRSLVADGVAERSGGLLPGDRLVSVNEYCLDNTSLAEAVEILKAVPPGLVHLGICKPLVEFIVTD
Assay: G' assay
Settings: not given
Note: key of the grades not given here.

Binder	Classification [A450 class]
PIPAGGCTFSGIFPTLTSPL (modifications not checked) [KIA 1481]	1
TQGFPGPATWRRISSLESEV (modifications not checked) [NMDA Glutamate Receptor 2C (cysteine-free)]	1
PYSELNYETSHYPASPDSWV (modifications not checked) [catenin - delta 2]	1
ELLQFCRTPNPALKNGQYWV (modifications not checked) [CSPG4 (chondroitin sulfae proteoglycan 4, melanoma-associated)]	5

Biological target: T2, GST-MINT1 PDZ domains 1, 2, Q02410
T2 chain: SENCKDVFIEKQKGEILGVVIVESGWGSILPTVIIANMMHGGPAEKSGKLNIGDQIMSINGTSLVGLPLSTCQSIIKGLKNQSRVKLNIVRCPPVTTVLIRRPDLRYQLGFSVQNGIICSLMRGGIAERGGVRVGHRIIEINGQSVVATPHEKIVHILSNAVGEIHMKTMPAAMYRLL
Assay: G' assay
Settings: not given

Binder	Classification [A450 class]
AWDDSARAAGGQGLHVTAL (modifications not checked) [LPAP]	1
VGTLLLERVIFPSVKIATLV (modifications not checked) [AdenoE4 typ9]	2
KTMPAAMYRLLTAQEQPVYI (modifications not checked) [MINT-1]	5
VPGALDYAAFSSALYGESDL (modifications not checked) [a-actinin 2]	1
PIPAGGCTFSGIFPTLTSPL (modifications not checked) [KIA 1481]	3
TQGFPGPATWRRISSLESEV (modifications not checked) [NMDA Glutamate Receptor 2C (cysteine-free)]	1
ILNSIQVMRAQMNQIQSVEV (modifications not checked) [ephrin B2]	2
PYSELNYETSHYPASPDSWV (modifications not checked) [catenin - delta 2]	5
ELLQFCRTPNPALKNGQYWV (modifications not checked) [CSPG4 (chondroitin sulfae proteoglycan 4, melanoma-associated)]	5

Biological target: T3, GST-NeDLG PDZ domain 3 (Mus musculus (Mouse)), P70175
T3 chain: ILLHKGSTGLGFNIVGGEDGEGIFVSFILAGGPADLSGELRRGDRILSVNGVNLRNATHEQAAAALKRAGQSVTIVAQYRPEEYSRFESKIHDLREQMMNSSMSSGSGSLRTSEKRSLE
Assay: G' assay
Settings: not given

Binder	Classification [A450 class]
QISPGGLEPPSEKHFRETEV (modifications not checked) [TAX]	5
TQGFPGPATWRRISSLESEV (modifications not checked) [NMDA Glutamate Receptor 2C (cysteine-free)]	1
ILNSIQVMRAQMNQIQSVEV (modifications not checked) [ephrin B2]	1
PYSELNYETSHYPASPDSWV (modifications not checked) [catenin - delta 2]	1

Biological target: T4, GST-ZO-1 PDZ domain 1 (Rattus norvegicus (Rat)), A0A0G2
T4 chain: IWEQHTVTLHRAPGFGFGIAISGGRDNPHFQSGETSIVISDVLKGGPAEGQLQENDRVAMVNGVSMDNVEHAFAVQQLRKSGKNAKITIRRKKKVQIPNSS
Assay: G' assay
Settings: not given

Binder	Classification [A450 class]
VGTLLLERVIFPSVKIATLV (modifications not checked) [AdenoE4 typ9]	2
KTMPAAMYRLLTAQEQPVYI (modifications not checked) [MINT-1]	1
ILNSIQVMRAQMNQIQSVEV (modifications not checked) [ephrin B2]	3
ELLQFCRTPNPALKNGQYWV (modifications not checked) [CSPG4 (chondroitin sulfae proteoglycan 4, melanoma-associated)]	5

Biological target: T5, GST-LIM Mystique PDZ domain 1 (Homo sapiens (Human)), Q96JY6
T5 chain: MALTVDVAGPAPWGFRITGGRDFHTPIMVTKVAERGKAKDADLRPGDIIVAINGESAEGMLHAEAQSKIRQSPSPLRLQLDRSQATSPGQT
Assay: G' assay
Settings: not given

Binder	Classification [A450 class]
QISPGGLEPPSEKHFRETEV (modifications not checked) [TAX]	1
VPGALDYAAFSSALYGESDL (modifications not checked) [a-actinin 2]	5
TQGFPGPATWRRISSLESEV (modifications not checked) [NMDA Glutamate Receptor 2C (cysteine-free)]	4
ILNSIQVMRAQMNQIQSVEV (modifications not checked) [ephrin B2]	1
PYSELNYETSHYPASPDSWV (modifications not checked) [catenin - delta 2]	5
ELLQFCRTPNPALKNGQYWV (modifications not checked) [CSPG4 (chondroitin sulfae proteoglycan 4, melanoma-associated)]	2
HDFRRAFKKILARGDRKRIV (modifications not checked) [alpha-2A Adrenergic receptor]	1

biological target: GST-KIAA1634 PDZ domain 4 (Homo sapiens (Human)), Q5TCQ9; assay: G' assay; settings: not given
Sequence (Q5TCQ9 844-945): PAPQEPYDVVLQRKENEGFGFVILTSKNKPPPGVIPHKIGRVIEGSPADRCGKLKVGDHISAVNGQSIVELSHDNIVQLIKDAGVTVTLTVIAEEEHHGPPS

Binder	Classification [A450 class]
QISPGGLEPPSEKHFRETEV (modifications not checked) [TAX]	2
VGTLLLERVIFPSVKIATLV (modifications not checked) [AdenoE4 typ9]	4
TQGFPGPATWRRISSLESEV (modifications not checked) [NMDA Glutamate Receptor 2C (cysteine-free)]	1

Biological target: T6, GST-KIAA1634 PDZ domain 2 (Homo sapiens (Human)), Q5TCQ9
T6 chain: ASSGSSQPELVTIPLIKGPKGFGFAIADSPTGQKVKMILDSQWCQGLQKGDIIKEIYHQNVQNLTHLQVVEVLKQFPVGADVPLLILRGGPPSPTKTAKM
Assay: G' assay
Settings: not given

Binder	Classification [A450 class]
QISPGGLEPPSEKHFRETEV (modifications not checked) [TAX]	2
VGTLLLERVIFPSVKIATLV (modifications not checked) [AdenoE4 typ9]	5
PIPAGGCTFSGIFPTLTSPL (modifications not checked) [KIA 1481]	1
TQGFPGPATWRRISSLESEV (modifications not checked) [NMDA Glutamate Receptor 2C (cysteine-free)]	3
ILNSIQVMRAQMNQIQSVEV (modifications not checked) [ephrin B2]	1

Biological target: T7, GST-ZO-3 PDZ domain 3 (Homo sapiens (Human)), O95049
T7 chain: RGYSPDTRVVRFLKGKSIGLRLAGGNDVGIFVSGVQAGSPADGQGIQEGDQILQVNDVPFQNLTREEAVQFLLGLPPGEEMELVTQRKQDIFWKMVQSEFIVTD
Assay: G' assay
Settings: not given

Binder	Classification [A450 class]
KTMPAAMYRLLTAQEQPVYI (modifications not checked) [MINT-1]	1
ILNSIQVMRAQMNQIQSVEV (modifications not checked) [ephrin B2]	1
PYSELNYETSHYPASPDSWV (modifications not checked) [catenin - delta 2]	3
ELLQFCRTPNPALKNGQYWV (modifications not checked) [CSPG4 (chondroitin sulfae proteoglycan 4, melanoma-associated)]	5

Biological target: T8, GST-Shank 1 PDZ domain 1 (Homo sapiens (Human)), Q9UPX8
T8 chain: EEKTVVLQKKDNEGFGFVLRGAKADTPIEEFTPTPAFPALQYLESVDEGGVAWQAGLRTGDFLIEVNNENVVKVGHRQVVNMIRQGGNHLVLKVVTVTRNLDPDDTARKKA
Assay: G' assay
Settings: not given

Binder	Classification [A450 class]
AWDDSARAAGGQGLHVTAL (modifications not checked) [LPAP]	3
VPGALDYAAFSSALYGESDL (modifications not checked) [a-actinin 2]	1
PIPAGGCTFSGIFPTLTSPL (modifications not checked) [KIA 1481]	5

biological target: GST-PSD95 PDZ domain 1 (Homo sapiens); assay: G' assay; settings: not given

Binder	Classification [A450 class]
QISPGGLEPPSEKHFRETEV (modifications not checked) [TAX]	5
VGTLLLERVIFPSVKIATLV (modifications not checked) [AdenoE4 typ9]	4
TQGFPGPATWRRISSLESEV (modifications not checked) [NMDA Glutamate Receptor 2C (cysteine-free)]	5
PYSELNYETSHYPASPDSWV (modifications not checked) [catenin - delta 2]	1

Biological target: T9, GST-MUPP1 PDZ domain 11 (Homo sapiens (Human)), O75970
T9 chain: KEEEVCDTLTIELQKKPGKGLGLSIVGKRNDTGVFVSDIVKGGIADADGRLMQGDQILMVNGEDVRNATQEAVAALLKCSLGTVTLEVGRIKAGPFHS
Assay: G' assay
Settings: not given

Binder	Classification [A450 class]
VGTLLLERVIFPSVKIATLV (modifications not checked) [AdenoE4 typ9]	5
KTMPAAMYRLLTAQEQPVYI (modifications not checked) [MINT-1]	5
ILNSIQVMRAQMNQIQSVEV (modifications not checked) [ephrin B2]	2
ELLQFCRTPNPALKNGQYWV (modifications not checked) [CSPG4 (chondroitin sulfae proteoglycan 4, melanoma-associated)]	5

biological target: GST-BAI-1 Associated Protein PDZ domain 5 (Homo sapiens (Human)), Q96QZ7; assay: G' assay; settings: not given
Sequence (Q96QZ7 988-1099): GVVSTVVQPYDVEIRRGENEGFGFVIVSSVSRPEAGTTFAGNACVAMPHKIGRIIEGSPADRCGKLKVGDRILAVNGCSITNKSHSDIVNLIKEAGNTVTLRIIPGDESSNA

Binder	Classification [A450 class]
QISPGGLEPPSEKHFRETEV (modifications not checked) [TAX]	5
PIPAGGCTFSGIFPTLTSPL (modifications not checked) [KIA 1481]	3
TQGFPGPATWRRISSLESEV (modifications not checked) [NMDA Glutamate Receptor 2C (cysteine-free)]	4

Biological target: T10, GST-ERBIN PDZ domain 1 (Homo sapiens (Human)), Q96RT1
T10 chain: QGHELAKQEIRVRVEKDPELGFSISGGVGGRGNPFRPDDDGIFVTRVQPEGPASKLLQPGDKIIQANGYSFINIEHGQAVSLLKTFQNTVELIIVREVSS
Assay: G' assay
Settings: not given

Binder	Classification [A450 class]
QISPGGLEPPSEKHFRETEV (modifications not checked) [TAX]	5
VPGALDYAAFSSALYGESDL (modifications not checked) [a-actinin 2]	1
TQGFPGPATWRRISSLESEV (modifications not checked) [NMDA Glutamate Receptor 2C (cysteine-free)]	4
PYSELNYETSHYPASPDSWV (modifications not checked) [catenin - delta 2]	4
ELLQFCRTPNPALKNGQYWV (modifications not checked) [CSPG4 (chondroitin sulfae proteoglycan 4, melanoma-associated)]	3

Biological target: T11, GST-KIAA0973 PDZ domain 1 (Homo sapiens (Human)), Q9Y2H9
T11 chain: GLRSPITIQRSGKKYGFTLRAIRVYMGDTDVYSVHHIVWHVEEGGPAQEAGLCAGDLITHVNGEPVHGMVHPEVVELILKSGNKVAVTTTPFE
Assay: G' assay
Settings: not given

Binder	Classification [A450 class]
VPGALDYAAFSSALYGESDL (modifications not checked) [a-actinin 2]	2
PIPAGGCTFSGIFPTLTSPL (modifications not checked) [KIA 1481]	2
TQGFPGPATWRRISSLESEV (modifications not checked) [NMDA Glutamate Receptor 2C (cysteine-free)]	1
ILNSIQVMRAQMNQIQSVEV (modifications not checked) [ephrin B2]	2

Biological target: T12, GST-ZO-3 PDZ domain 1
T12 chain: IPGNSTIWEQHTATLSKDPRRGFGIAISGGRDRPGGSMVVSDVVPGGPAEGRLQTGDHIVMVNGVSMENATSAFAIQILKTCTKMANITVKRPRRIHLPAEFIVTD
Assay: G' assay
Settings: not given

Binder	Classification [A450 class]
KTMPAAMYRLLTAQEQPVYI (modifications not checked) [MINT-1]	2
ILNSIQVMRAQMNQIQSVEV (modifications not checked) [ephrin B2]	1
ELLQFCRTPNPALKNGQYWV (modifications not checked) [CSPG4 (chondroitin sulfae proteoglycan 4, melanoma-associated)]	2

Biological target: T13, GST-NOS1 PDZ domain 1 (Homo sapiens (Human)), P29475
T13 chain: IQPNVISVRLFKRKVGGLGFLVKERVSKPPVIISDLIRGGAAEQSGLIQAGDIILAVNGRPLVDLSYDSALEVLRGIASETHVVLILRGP
Assay: G' assay
Settings: not given

Binder	Classification [A450 class]
VGTLLLERVIFPSVKIATLV (modifications not checked) [AdenoE4 typ9]	5
KTMPAAMYRLLTAQEQPVYI (modifications not checked) [MINT-1]	4
TQGFPGPATWRRISSLESEV (modifications not checked) [NMDA Glutamate Receptor 2C (cysteine-free)]	1
ELLQFCRTPNPALKNGQYWV (modifications not checked) [CSPG4 (chondroitin sulfae proteoglycan 4, melanoma-associated)]	2

Same assay, conditions: remark: other sources report otherwise

Binder	Classification [A450 class]
AWDDSARAAGGQGLHVTAL (modifications not checked) [LPAP]	1

Biological target: T14, GST-NeDLG PDZ domain 2 (Rattus norvegicus (Rat)), Q62936
T14 chain: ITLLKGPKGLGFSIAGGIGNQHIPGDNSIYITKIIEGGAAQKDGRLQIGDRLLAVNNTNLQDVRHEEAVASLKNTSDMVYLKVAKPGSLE
Assay: G' assay
Settings: not given

Binder	Classification [A450 class]
QISPGGLEPPSEKHFRETEV (modifications not checked) [TAX]	5
VGTLLLERVIFPSVKIATLV (modifications not checked) [AdenoE4 typ9]	5
TQGFPGPATWRRISSLESEV (modifications not checked) [NMDA Glutamate Receptor 2C (cysteine-free)]	5
ILNSIQVMRAQMNQIQSVEV (modifications not checked) [ephrin B2]	2

Biological target: T15, GST-NeDLG PDZ domains 1, 2, Q92796
T15 chain: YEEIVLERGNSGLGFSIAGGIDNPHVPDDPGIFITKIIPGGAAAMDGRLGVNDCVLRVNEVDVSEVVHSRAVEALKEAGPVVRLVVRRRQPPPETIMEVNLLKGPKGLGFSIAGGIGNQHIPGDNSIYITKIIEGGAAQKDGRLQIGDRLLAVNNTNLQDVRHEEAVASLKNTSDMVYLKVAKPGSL
Assay: G' assay
Settings: not given

Binder	Classification [A450 class]
QISPGGLEPPSEKHFRETEV (modifications not checked) [TAX]	5
VGTLLLERVIFPSVKIATLV (modifications not checked) [AdenoE4 typ9]	5
TQGFPGPATWRRISSLESEV (modifications not checked) [NMDA Glutamate Receptor 2C (cysteine-free)]	5

Biological target: T16, GST-ZO-2 PDZ domain 2 (Homo sapiens (Human)), Q9UDY2
T16 chain: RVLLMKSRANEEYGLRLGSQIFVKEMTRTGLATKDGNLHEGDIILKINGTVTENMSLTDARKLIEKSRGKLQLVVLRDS
Assay: G' assay
Settings: not given

Binder	Classification [A450 class]
ILNSIQVMRAQMNQIQSVEV (modifications not checked) [ephrin B2]	1
ELLQFCRTPNPALKNGQYWV (modifications not checked) [CSPG4 (chondroitin sulfae proteoglycan 4, melanoma-associated)]	1
HDFRRAFKKILARGDRKRIV (modifications not checked) [alpha-2A Adrenergic receptor]	2
